Experimental data from the nanobody polyreactivity screen of Harvey et al. (2022).

experiment: yeast display, Sf9 membrane polyspecificity reagent, FACS + sequencing; frameworks hold sequencing errors
Outline: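 Sorting gates, low and high (top ~1%), were placed on anti-HA fluorescence to track expression and on streptavidin fluorescence to track reagent binding. A clone's polyreactivity label is taken from the gate it came out of. The reagent was 10% biotinylated, detergent-solubilized Sf9 membrane, applied for 1 hour at 4 °C to galactose-induced yeast display cells.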

Row | Sequence | polyreactivity (PSR sort gate)
1 | QVQLVESGGGLVQAGGSLRLTCAASGFTFHNYAMGWYRQAPGKERELVAVIRWRGGSTYYADSVKGRFTISRDNAKNTVYLQMNSLKPEDTAVYYCAKRARGSYYWGYNYWGQGTQVTVSS | high polyreactivity
2 | QVQLVESGGGLVQAGGSLRLTCAASGFTFHSYAMGWYRQSPGTERELVAAISARGGSTYYADSVKGRLTISRDNAKNTVYLQMNSLKPEDTAFYYCAAYSYQVRFYYWGQGTQVTVSS | high polyreactivity
3 | QVQLVESGGGLVQAGGSLRLTCAASGFTFRRYAMGCYRKAPGKERLLVAAISYSGGITYYADSVKGRFTISRDNAKNTVYLHMNSLKAEDTAVYYCAADYFAPYKTYDYWGQGTQVTVSS | high polyreactivity
4 | QVQLVESGGGLVQAGGSLRLTCAASGGILYYNAMGWYRQAPGKEREVVAAISRSGITYYADSVKGRFTISRDNAKNTVYLQMNSLKPEDTAVYYSNTVPWRRWGYDYWGQGTQVTVSS | high polyreactivity
5 | QVQLVESGGGLVQAGGSLRLTCAASGGTFQYYSMGWYRQAPGKERELVAAITTSGGSTYYADSVKGRFTISRDNAKNTDYLQMNSLKPEDTAVYYCAAGRGYRGYVRYYYWGQGTQVTVSS | high polyreactivity
6 | QVQLVESGGGLVQAGGSLRLTCAASGGTFRLYAMGWYRQAPGKERELVAAISSTGSTYYAASVKGRFTISRDNAKNTVYLQMNSLKPEDTAVYYCNAKLPVTSLKFDYYYWGQGTQVTVSS | high polyreactivity
7 | QVQLVESGGGLVQAGGSLRLTCAASGIIFKLYAMGWYRQAPGKEREFVATITKTGGRTYYADSVKGRFTISRDNAKNTVYLQMNSLKPEDTAVDYCAARRVNGKMYYWGQGTQVTVSS | high polyreactivity
8 | QVQLVESGGGLVQAGGSLRLTCAASGITFFQYAMGWYRQAPGKERELVAAITWSGGDTYYADSVKGRFTISRDNAKITVYLQMNSLKPEDTAVYYCAAEYVVQYYVYGYTLGYDYWGQGTQVTVSS | high polyreactivity
9 | QVQLVESGGGLVQAGGSLRLTCAASGITFTSYVMGWYRQAPGKERELVAAIRWSGGRTYYADSVKGRFTISRDNAKNSVYLQMNSLKPEDTAVYYCNRVTRSHVDYWGQGTQVTVSS | high polyreactivity
10 | QVQLVESGGGLVQAGGSLRLTCAASGITFYSYAMGWYRQAPGKERELVAAITRSGGSTYYADSVKGRFTISRDNAKNTVYLQMNSLKPEDTAVYYCAADEGRVFSGGYDYWGQGTQVTVSS | high polyreactivity
11 | QVQLVESGGGLVQAGGSLRLTCAASGLIFFTPYALGWYRQAPGTESELVAVITWRGASTYYADSVKGRFTISRDNAKHTVYFQMNSLKPEDTAVYYCAAKLCSVWKESYDSWGQGTQVTVSS | low polyreactivity
12 | QVQLVESGGGLVQAGGSLRLTCAASGLILDGYAMGWYRQAPGKERELVAAITRSGGRTYYADSVKGRFTISRDNAKNTVYLQMNSLKPEDTAVDYCAADTYRYHLIATDDYWGQGTQVTVSS | high polyreactivity
13 | QVQLVESGGGLVQAGGSLRLTCAASGLISTPNALGWYRQAPGKEREFVASISSRGGSTYYADSVKGRFTISRDNAMNTVYLQMNSLKPEDTAVYYCAADAYREFYYEYYYWGQGTQVTVSS | low polyreactivity
14 | QVQLVESGGGLVQAGGSLRLTCAASGLTFPKYAMGWYRQAPGKERELVAAITQRGGSTYYADSVKGRFTISRDNAKNTVYLQMNSLKPEDTAVYYCNARRRDYNNRREFDYWGQGTQVTVSS | high polyreactivity
15 | QVQLVESGGGLVQAGGSLRLTCAASGLTFRSYTMRWYRQAPGTERELVAAITFRGGSTYYADSLKGRFTISRDNAKNTVYLQMNSLKPEDTAVYYSAAVAIRRSVPVPRFDYWGQGTQVTVSS | high polyreactivity
16 | QVQLVESGGGLVQAGGSLRLTCAASGLTFTTYALGWYRQAPGKERELVAAISRRGSRTYYADSVKGRFTISRDNAKNTVYLQMNSLKPEDTAVYYCNALTGSFKTYSFDYWGQGTQVTVSS | high polyreactivity
17 | QVQLVESGGGLVQAGGSLRLTCAASGNIFISYAMGWYRQAPGKEMELVAAISRSGGSTYYADSVKGRFTISRDNEKNSVYLLMNSLKPEDTAVYYCAAYIGQGRYGSWGQGTQVNVSS | high polyreactivity
